Test results published in paper doi:10.1101/2023.08.25.554913 (bioRxiv, 2023).

Target: the molecule itself
Assay: SEC

B1: PfuAmyGT (PF0272) from Pyrococcus furiosus, wild type (enzyme, UniProt P49067 1-649, looked up)
chain: MGDKINFIFGIHNHQPLGNFGWVFEEAYEKCYWPFLETLEEYPNMKVAIHTSGPLIEWLQDNRPEYIDLLRSLVKRGQVEIVVAGFYEPVLASIPKEDRIEQIRLMKEWAKSIGFDARGVWLTERVWQPELVKTLKESGIDYVIVDDYHFMSAGLSKEELYWPYYTEDGGEVIAVFPIDEKLRYLIPFRPVDKVLEYLHSLIDGDESKVAVFHDDGEKFGIWPGTYEWVYEKGWLREFFDRISSDEKINLMLYTEYLEKYKPRGLVYLPIASYFEMSEWSLPAKQARLFVEFVNELKVKGIFEKYRVFVRGGIWKNFFYKYPESNYMHKRMLMVSKLVRNNPEARKYLLRAQCNDAYWHGLFGGVYLPHLRRAIWNNLIKANSYVSLGKVIRDIDYDGFEEVLIENDNFYAVFKPSYGGSLVEFSSKNRLVNYVDVLARRWEHYHGYVESQFDGVASIHELEKKIPDEIRKEVAYDKYRRFMLQDHVVPLGTTLEDFMFSRQQEIGEFPRVPYSYELLDGGIRLKREHLGIEVEKTVKLVNDGFEVEYIVNNKTGNPVLFAVELNVAVQSIMESPGVLRGKEIVVDDKYAVGKFALKFEDEMEVWKYPVKTLSQSESGWDLIQQGVSYIVPIRLEDKIRFKLKFEEASG
B1 was tested, and the “stoichiometry N” value was 2.
